*1 amine or outer side, *2 acyl side, *3 side chain or, on linkers, in order; H or OH if unused. Side-chain parts run from the residue outwards. The star is where a group is joined. C18 diacid = O=C(O)CCCCCCCCCCCCCCCCC(=O)*; γGlu = O=C(O)[C@H](CCC(=O)[*:2])N[*:1]; Isovaleryl = CC(C)CC(=O)*; Ahx = NCCCCCC(=O)O Where only a bound is given, the exact number is not on record here.

Assay [1] addresses T1, human NPY2 receptor (human, UniProt P49146 1-381).
T1 construct: whole, on cells; also called hNPY2-R; hNPY2R
T1 sequence (looked up): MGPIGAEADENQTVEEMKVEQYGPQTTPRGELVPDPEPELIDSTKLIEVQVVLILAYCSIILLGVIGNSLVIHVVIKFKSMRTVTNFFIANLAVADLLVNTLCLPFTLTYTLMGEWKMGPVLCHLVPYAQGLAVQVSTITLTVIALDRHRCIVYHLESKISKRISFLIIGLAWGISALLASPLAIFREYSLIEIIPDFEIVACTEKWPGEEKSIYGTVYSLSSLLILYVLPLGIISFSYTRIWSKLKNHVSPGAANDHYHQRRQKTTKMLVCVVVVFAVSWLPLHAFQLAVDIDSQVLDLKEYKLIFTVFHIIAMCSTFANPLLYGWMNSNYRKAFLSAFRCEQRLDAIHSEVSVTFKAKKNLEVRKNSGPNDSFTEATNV
Description: RLB: displacement of 125I-PYY(1-36) from hNPY2R membranes. On the technique in general: In a radioligand displacement assay an active substance lowers the binding of a labelled ligand.

For the next assay, the target named is T2, human NPY1 receptor (human, UniProt P25929 1-384).
T2 sequence (looked up): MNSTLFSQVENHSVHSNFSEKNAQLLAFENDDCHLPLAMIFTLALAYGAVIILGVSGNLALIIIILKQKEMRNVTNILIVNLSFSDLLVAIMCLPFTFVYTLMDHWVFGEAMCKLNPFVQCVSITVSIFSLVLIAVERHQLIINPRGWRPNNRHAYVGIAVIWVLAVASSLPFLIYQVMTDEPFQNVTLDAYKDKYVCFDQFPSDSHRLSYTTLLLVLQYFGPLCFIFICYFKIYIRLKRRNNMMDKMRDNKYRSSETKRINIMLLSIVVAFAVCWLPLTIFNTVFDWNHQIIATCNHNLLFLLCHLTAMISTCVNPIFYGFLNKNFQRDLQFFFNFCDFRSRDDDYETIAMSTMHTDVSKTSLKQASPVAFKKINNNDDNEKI
Put plainly: cell-based or functional assay.

The target of a further assay is human NPY4 receptor (human, UniProt P50391 1-375). Put plainly: cell-based or functional assay.
A further assay has as its target T3, human NPY5 receptor (human, UniProt Q15761 1-445).
T3 sequence (looked up): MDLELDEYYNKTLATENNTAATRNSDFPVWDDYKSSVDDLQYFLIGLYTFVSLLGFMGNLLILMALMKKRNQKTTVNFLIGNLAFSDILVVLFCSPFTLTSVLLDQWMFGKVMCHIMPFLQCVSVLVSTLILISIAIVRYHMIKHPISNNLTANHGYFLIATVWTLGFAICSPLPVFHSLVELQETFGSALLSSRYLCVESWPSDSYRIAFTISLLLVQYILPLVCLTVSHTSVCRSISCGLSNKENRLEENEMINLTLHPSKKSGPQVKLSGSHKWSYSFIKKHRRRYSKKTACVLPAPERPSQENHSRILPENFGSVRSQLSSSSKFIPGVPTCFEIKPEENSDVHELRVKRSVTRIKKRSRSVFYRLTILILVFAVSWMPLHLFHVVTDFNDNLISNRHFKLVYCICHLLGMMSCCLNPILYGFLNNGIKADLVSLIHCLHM
Description: cell-based or functional assay.

Assay [2] addresses T1, human NPY2 receptor. Put plainly: cell-based or functional assay.

Chain of human NPY4 receptor (P50391 whole entry): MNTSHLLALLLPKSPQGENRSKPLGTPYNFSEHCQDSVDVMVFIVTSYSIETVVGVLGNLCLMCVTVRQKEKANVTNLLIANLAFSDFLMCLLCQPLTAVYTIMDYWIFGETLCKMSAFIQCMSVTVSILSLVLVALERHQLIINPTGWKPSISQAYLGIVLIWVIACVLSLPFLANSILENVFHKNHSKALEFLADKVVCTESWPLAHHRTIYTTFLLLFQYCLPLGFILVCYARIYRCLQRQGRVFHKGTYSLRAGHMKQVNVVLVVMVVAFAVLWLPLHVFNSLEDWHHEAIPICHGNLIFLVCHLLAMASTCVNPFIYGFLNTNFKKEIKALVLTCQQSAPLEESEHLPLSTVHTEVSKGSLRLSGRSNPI

B1: Compound 11 (peptide)
peptide: Isovaleryl-APEK([Ahx-γGlu-C18 diacid])PEADASPEEIQRYYISLRHYYNWLTRQRY-NH2
SMILES: CC[C@H](C)[C@H](NC(=O)[C@H](Cc1ccc(O)cc1)NC(=O)[C@H](Cc1ccc(O)cc1)NC(=O)[C@H](CCCNC(=N)N)NC(=O)[C@H](CCC(N)=O)NC(=O)[C@@H](NC(=O)[C@H](CCC(=O)O)NC(=O)[C@H](CCC(=O)O)NC(=O)[C@@H]1CCCN1C(=O)[C@H](CO)NC(=O)[C@H](C)NC(=O)[C@H](CC(=O)O)NC(=O)[C@H](C)NC(=O)[C@H](CCC(=O)O)NC(=O)[C@@H]1CCCN1C(=O)[C@H](CCCCNC(=O)CCCCCNC(=O)CC[C@H](NC(=O)CCCCCCCCCCCCCCCCC(=O)O)C(=O)O)NC(=O)[C@H](CCC(=O)O)NC(=O)[C@@H]1CCCN1C(=O)[C@H](C)NC(=O)CC(C)C)[C@@H](C)CC)C(=O)N[C@@H](CO)C(=O)N[C@@H](CC(C)C)C(=O)N[C@@H](CCCNC(=N)N)C(=O)N[C@@H](Cc1c[nH]cn1)C(=O)N[C@@H](Cc1ccc(O)cc1)C(=O)N[C@@H](Cc1ccc(O)cc1)C(=O)N[C@@H](CC(N)=O)C(=O)N[C@@H](Cc1c[nH]c2ccccc12)C(=O)N[C@@H](CC(C)C)C(=O)N[C@H](C(=O)N[C@@H](CCCNC(=N)N)C(=O)N[C@@H](CCC(N)=O)C(=O)N[C@@H](CCCNC(=N)N)C(=O)N[C@@H](Cc1ccc(O)cc1)C(N)=O)[C@@H](C)O
With B1, in the assay with human NPY2 receptor [1], the Ki (usually a measure of affinity in units of concentration, obtained from inhibition or displacement) is 1.4 nM. The “EC50, HTRF cAMP Gi assay” value is greater than 5000 nM with human NPY1 receptor, greater than 5000 nM in the assay with human NPY4 receptor, greater than 5000 nM with human NPY5 receptor and 0.136 nM in the assay with human NPY2 receptor [2].

B2: Compound 55 (peptide)
peptide: Isovaleryl-APEK([Ahx-γGlu-C18 diacid])PEEDASEEEIQRYYVSLRHYYNWLTRQRY-NH2
SMILES: CC[C@H](C)[C@H](NC(=O)[C@H](CCC(=O)O)NC(=O)[C@H](CCC(=O)O)NC(=O)[C@H](CCC(=O)O)NC(=O)[C@H](CO)NC(=O)[C@H](C)NC(=O)[C@H](CC(=O)O)NC(=O)[C@H](CCC(=O)O)NC(=O)[C@H](CCC(=O)O)NC(=O)[C@@H]1CCCN1C(=O)[C@H](CCCCNC(=O)CCCCCNC(=O)CC[C@H](NC(=O)CCCCCCCCCCCCCCCCC(=O)O)C(=O)O)NC(=O)[C@H](CCC(=O)O)NC(=O)[C@@H]1CCCN1C(=O)[C@H](C)NC(=O)CC(C)C)C(=O)N[C@@H](CCC(N)=O)C(=O)N[C@@H](CCCNC(=N)N)C(=O)N[C@@H](Cc1ccc(O)cc1)C(=O)N[C@@H](Cc1ccc(O)cc1)C(=O)N[C@H](C(=O)N[C@@H](CO)C(=O)N[C@@H](CC(C)C)C(=O)N[C@@H](CCCNC(=N)N)C(=O)N[C@@H](Cc1c[nH]cn1)C(=O)N[C@@H](Cc1ccc(O)cc1)C(=O)N[C@@H](Cc1ccc(O)cc1)C(=O)N[C@@H](CC(N)=O)C(=O)N[C@@H](Cc1c[nH]c2ccccc12)C(=O)N[C@@H](CC(C)C)C(=O)N[C@H](C(=O)N[C@@H](CCCNC(=N)N)C(=O)N[C@@H](CCC(N)=O)C(=O)N[C@@H](CCCNC(=N)N)C(=O)N[C@@H](Cc1ccc(O)cc1)C(N)=O)[C@@H](C)O)C(C)C
In turn, B2 showed a Ki in the assay with human NPY2 receptor [1] of 2.96 nM. The “EC50, HTRF cAMP Gi assay” value is greater than 5000 nM with human NPY1 receptor, greater than 5000 nM with human NPY4 receptor, greater than 5000 nM in the assay with human NPY5 receptor and 0.352 nM with human NPY2 receptor [2].

B3: Compound 53 (peptide)
peptide: Isovaleryl-APEK([Ahx-γGlu-C18 diacid])PEEDAEPEEVQRYYVSLRHYYNWLTRQRY-NH2
SMILES: CC(C)CC(=O)N[C@@H](C)C(=O)N1CCC[C@H]1C(=O)N[C@@H](CCC(=O)O)C(=O)N[C@@H](CCCCNC(=O)CCCCCNC(=O)CC[C@H](NC(=O)CCCCCCCCCCCCCCCCC(=O)O)C(=O)O)C(=O)N1CCC[C@H]1C(=O)N[C@@H](CCC(=O)O)C(=O)N[C@@H](CCC(=O)O)C(=O)N[C@@H](CC(=O)O)C(=O)N[C@@H](C)C(=O)N[C@@H](CCC(=O)O)C(=O)N1CCC[C@H]1C(=O)N[C@@H](CCC(=O)O)C(=O)N[C@@H](CCC(=O)O)C(=O)N[C@H](C(=O)N[C@@H](CCC(N)=O)C(=O)N[C@@H](CCCNC(=N)N)C(=O)N[C@@H](Cc1ccc(O)cc1)C(=O)N[C@@H](Cc1ccc(O)cc1)C(=O)N[C@H](C(=O)N[C@@H](CO)C(=O)N[C@@H](CC(C)C)C(=O)N[C@@H](CCCNC(=N)N)C(=O)N[C@@H](Cc1c[nH]cn1)C(=O)N[C@@H](Cc1ccc(O)cc1)C(=O)N[C@@H](Cc1ccc(O)cc1)C(=O)N[C@@H](CC(N)=O)C(=O)N[C@@H](Cc1c[nH]c2ccccc12)C(=O)N[C@@H](CC(C)C)C(=O)N[C@H](C(=O)N[C@@H](CCCNC(=N)N)C(=O)N[C@@H](CCC(N)=O)C(=O)N[C@@H](CCCNC(=N)N)C(=O)N[C@@H](Cc1ccc(O)cc1)C(N)=O)[C@@H](C)O)C(C)C)C(C)C
With B3, the affinity in the assay with human NPY2 receptor [1], expressed as Ki, was 3.07 nM. The “EC50, HTRF cAMP Gi assay” value with human NPY1 receptor is greater than 5000 nM; with human NPY4 receptor it was greater than 5000 nM; in the assay with human NPY5 receptor, greater than 5000 nM; in the assay with human NPY2 receptor [2], 0.352 nM.

B4: Compound 196 (peptide)
peptide: Isovaleryl-APEK([Ahx-γGlu-C18 diacid])PEADASPEELQRYYVSLRHYYNWLTRQRY-NH2
SMILES: CC(C)CC(=O)N[C@@H](C)C(=O)N1CCC[C@H]1C(=O)N[C@@H](CCC(=O)O)C(=O)N[C@@H](CCCCNC(=O)CCCCCNC(=O)CC[C@H](NC(=O)CCCCCCCCCCCCCCCCC(=O)O)C(=O)O)C(=O)N1CCC[C@H]1C(=O)N[C@@H](CCC(=O)O)C(=O)N[C@@H](C)C(=O)N[C@@H](CC(=O)O)C(=O)N[C@@H](C)C(=O)N[C@@H](CO)C(=O)N1CCC[C@H]1C(=O)N[C@@H](CCC(=O)O)C(=O)N[C@@H](CCC(=O)O)C(=O)N[C@@H](CC(C)C)C(=O)N[C@@H](CCC(N)=O)C(=O)N[C@@H](CCCNC(=N)N)C(=O)N[C@@H](Cc1ccc(O)cc1)C(=O)N[C@@H](Cc1ccc(O)cc1)C(=O)N[C@H](C(=O)N[C@@H](CO)C(=O)N[C@@H](CC(C)C)C(=O)N[C@@H](CCCNC(=N)N)C(=O)N[C@@H](Cc1c[nH]cn1)C(=O)N[C@@H](Cc1ccc(O)cc1)C(=O)N[C@@H](Cc1ccc(O)cc1)C(=O)N[C@@H](CC(N)=O)C(=O)N[C@@H](Cc1c[nH]c2ccccc12)C(=O)N[C@@H](CC(C)C)C(=O)N[C@H](C(=O)N[C@@H](CCCNC(=N)N)C(=O)N[C@@H](CCC(N)=O)C(=O)N[C@@H](CCCNC(=N)N)C(=O)N[C@@H](Cc1ccc(O)cc1)C(N)=O)[C@@H](C)O)C(C)C
The molecule B4 gave a Ki with human NPY2 receptor [1] of 3.57 nM. In addition, the “EC50, HTRF cAMP Gi assay” value was greater than 5000 nM with human NPY5 receptor and 0.086 nM with human NPY2 receptor [2].

As for Isovaleryl-APEK([Ahx-γGlu-C18 diacid])PEAEASPEELQRYYVSLRHYYNWLTRQRY-NH2 [Compound 122], the Ki with human NPY2 receptor [1] came to 2.73 nM. Moreover, the “EC50, HTRF cAMP Gi assay” value with human NPY1 receptor, with human NPY4 receptor and with human NPY5 receptor was greater than 5000 nM each time.
